According to patent US20220031857A1 (OSSIANIX, published 2022):

B1: SEQ ID NO 24 (VNAR clone displayed on phage) (VNAR)
VNAR: ARVDQTPQTITKETGESLTINCVLRDSNCALSNLYWYRKKSGSTNEESISKGGRYVETVNSGSKSFSLRINDLTVKDSGTYRCNVLVSMFCQLAQDVYGDGTAVTVNA
notes: shark VNAR domain on M13 phage; coat-protein fusion not described
B2: SEQ ID NO 25 (VNAR clone displayed on phage) (VNAR)
VNAR: ARVDQTPQTITKETGESLTINCVLRDSNCALSNLYWYRKKSGSTNEESISLGGRYVETVNSGSKSFSLRINDLTVEDSGTYRCNVCLLQLAGYDSPYDVYGGGTAVTVNA
notes: as for B1
B3: SEQ ID NO 21 (VNAR clone displayed on phage) (VNAR)
VNAR: ARVDQTPQTITKETGESLTINCVLRDSNCALSSTYWYRKKSGSTNEESISKGGRYVETVNSGSKSFSLRINDLTVEDSGTYRCKVLTSQSQGGCVRVLYSDVYGDGTAVTVNA
notes: as for B1
B4: SEQ ID NO 13 (VNAR clone displayed on phage) (VNAR)
VNAR: ARVDQTPQTITKETGESLTINCVLRDSNCALPSTYRYRKKSGSTNEESISKGGRYVETVNSGSKSFSLRINDLTVEDSGTYRCKVTMVRGRGCYQPARGQDVYGGGTAVTVNA
notes: as for B1
B5: SEQ ID NO 17 (VNAR clone displayed on phage) (VNAR)
VNAR: ARVDQTPQTITKETGESLTINCVLRDSNCALPSTYWYRKKSGSTNEESISKGGRYVETVNSGSKSFSLRINDLTVKDSGTYRCNVARHWTQSCAYHRDVYGGGTAVTVNA
notes: as for B1
B6: SEQ ID NO 22 (VNAR clone displayed on phage) (VNAR)
VNAR: ARVDQTPQTITKETGESLTINCVLRDSNCALSSTYWYRKKSDSTNEESISKGGRYVETVNSGSKSFSLRINDLTVEDSGTYRCKVHSFNMDVCAEFQYSDVYGDGTAVTVNA
notes: as for B1
B7: SEQ ID NO 14 (VNAR clone displayed on phage) (VNAR)
VNAR: ARVDQTPQTITKETGESLTINCVLRDSNCALPSTYWYRKKSGSTNEESISKGGRYVETVNSGSKSFSLRINDLTVEDSGTYRCKVTFSAFEYCYVFKVQCDVYGDGTAVTVNA
notes: as for B1
B8: SEQ ID NO 23 (VNAR clone displayed on phage) (VNAR)
VNAR: ARVDQTPQTITKETGESLTINCVLRDSNCALSNLYWYRKKSGSTNEESISKGGRYVETVNSGSKSFSLRINDLTVEDSGTYRCNVINFFAMECEYQVGDVYGDGTAVTVNA
notes: as for B1
B9: SEQ ID NO 15 (VNAR clone displayed on phage) (VNAR)
VNAR: ARVDQTPQTITKETGESLTINCVLRDSNCALPSTYWYCKKSGSTNEESISKGGRYVETVNSGSKSFSLRINDLTVKDSGTYRCKVHVRAQSLCCQCWYGDVYGDGTAVTVNA
notes: as for B1
B10: SEQ ID NO 19 (VNAR clone displayed on phage) (VNAR)
VNAR: ARVDQTPQTITKETGESLTINCVLRDSNCALPSTYWYRKKSGSTNEESISKGGRYVETVNSGSKSFSLRINDLTVEDSGTYRCNVGWSTQYYCVLPDVYGGGTAVTVNA
notes: as for B1
B11: SEQ ID NO 20 (VNAR clone displayed on phage) (VNAR)
VNAR: ARVDQTPQTITKETGESLTINCVLRDSNCALPSTYWYRKKSGSTNEESISKGGRYVETVNSGSKSFSLRINDLTVEDSGTYRCNVYTSYCCSVADVYGGGTAVTVNA
notes: as for B1
B12: SEQ ID NO 18 (VNAR clone displayed on phage) (VNAR)
VNAR: ARVDQTPQTITKETGESLTINCVLRDSNCALPSTYWYRKKSGSTNEESISKGGRYVETVNSGSKSFSLRINDLTVKDSGTYRCNVQHIFQHNCYWFLYDVYGGGTAVTVNA
notes: as for B1

Assays:
[1] = target: T1, recombinant human TfR1 (transferrin receptor 1) (human, UniProt P02786 89-760); test: phage ELISA
T1 construct: Bought recombinant His-tagged protein; also called hTfR1
T1 sequence (P02786 89-760 limits assumed): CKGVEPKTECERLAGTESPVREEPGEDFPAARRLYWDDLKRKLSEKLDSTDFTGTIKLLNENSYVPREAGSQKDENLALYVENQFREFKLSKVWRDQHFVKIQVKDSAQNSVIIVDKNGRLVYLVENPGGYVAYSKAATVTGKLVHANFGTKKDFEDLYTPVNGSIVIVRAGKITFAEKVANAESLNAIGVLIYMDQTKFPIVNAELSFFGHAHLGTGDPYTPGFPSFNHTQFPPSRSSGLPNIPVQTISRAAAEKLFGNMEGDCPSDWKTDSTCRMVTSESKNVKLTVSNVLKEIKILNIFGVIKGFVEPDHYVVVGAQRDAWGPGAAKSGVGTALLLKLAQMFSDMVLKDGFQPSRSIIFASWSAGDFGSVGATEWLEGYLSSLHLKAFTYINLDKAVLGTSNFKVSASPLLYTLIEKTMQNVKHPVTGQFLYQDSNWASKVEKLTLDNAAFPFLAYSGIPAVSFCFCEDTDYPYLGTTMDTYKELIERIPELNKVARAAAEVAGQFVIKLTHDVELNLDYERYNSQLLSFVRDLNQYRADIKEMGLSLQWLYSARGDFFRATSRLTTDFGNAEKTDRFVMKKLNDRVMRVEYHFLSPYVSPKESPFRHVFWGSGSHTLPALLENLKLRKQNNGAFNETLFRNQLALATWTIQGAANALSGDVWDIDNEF

[2] = target: T2, recombinant mouse TfR1 (transferrin receptor 1) (mouse, UniProt Q62351 89-763); test: phage ELISA
T2 construct: Bought recombinant His-tagged protein; also called mTfR1
T2 sequence (Q62351 89-763 limits assumed): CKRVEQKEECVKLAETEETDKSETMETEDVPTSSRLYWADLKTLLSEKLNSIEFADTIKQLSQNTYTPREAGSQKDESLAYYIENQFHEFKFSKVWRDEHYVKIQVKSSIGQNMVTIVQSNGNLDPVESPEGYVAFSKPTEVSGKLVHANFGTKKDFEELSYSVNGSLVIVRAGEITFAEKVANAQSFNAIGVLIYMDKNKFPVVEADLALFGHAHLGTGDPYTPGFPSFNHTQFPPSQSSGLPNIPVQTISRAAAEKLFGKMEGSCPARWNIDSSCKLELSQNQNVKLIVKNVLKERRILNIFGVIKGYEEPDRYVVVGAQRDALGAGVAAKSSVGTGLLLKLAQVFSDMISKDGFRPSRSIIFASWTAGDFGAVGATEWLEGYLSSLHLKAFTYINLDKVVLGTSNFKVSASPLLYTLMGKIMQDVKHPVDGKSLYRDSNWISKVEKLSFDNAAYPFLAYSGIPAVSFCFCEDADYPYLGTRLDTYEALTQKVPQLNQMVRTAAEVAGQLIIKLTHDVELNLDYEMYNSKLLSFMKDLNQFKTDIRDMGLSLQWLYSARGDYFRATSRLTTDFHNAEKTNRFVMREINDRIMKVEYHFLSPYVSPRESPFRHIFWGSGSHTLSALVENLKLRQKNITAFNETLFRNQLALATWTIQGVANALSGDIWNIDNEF

Binder	binding result [1]	binding result [2]
B1	binds	binds
B2	binds	binds
B3	binds	binds
B4	binds	binds
B5	binds	binds
B6	binds	binds
B7	binds	binds
B8	binds	binds
B9	binds	binds
B10	binds	binds
B11	binds	binds
B12	binds	binds
